Assay results taken from US20260193333A1, “METHODS OF INHIBITING FIBRIL GROWTH” (University of Tennessee Research Foundation, priority 2023, published 2026).

Experiments:
[1] = tested on: rVλ6WIL fibrils; experiment: rVλ6WIL (WIL) fibril extension assay with biotinylated rVλ6WIL monomer; type: biochemical; conditions: for % Change (at 2 μM) in rVλ6WIL fibril extension: at 2 μM sample, 20 nM Biotin-WIL, blocking agent BSA, compared to control sample
Method: A WIL fibril extension assay was developed for analyzing in vitro amyloid fibril formation using biotinylated WIL monomers.
First, a high binding 96-well ELISA plate was coated with 0.83 μM sonicated rVλ6WIL synthetic fibrils ([…]). The fibrils were then dried in a 37° C. oven. Subsequently, the plate was washed twice with wash buffer (PBS+0.05% tween 20). The plate was then blocked with […] of 1% BSA in PBS for 1 hour at 37° C. The blocking buffer was then removed and the plate was washed twice with wash buffer. For positive control wells, 100 mL of 20 nM biotinylated rVλ6WIL monomer (biotinylated with EZ-link Sulfo-NHS-biotin (ThermoFisher Scientific) following their protocol) in 1% BSA+0.05% tween 20 in PBS (BSAT) was added per well. For test wells, 100 mL of a mix of 20 nM biotinylated rVλ6WIL monomer plus an amyloid-reactive peptide, an amyloid-reactive antibody, or an amyloid-reactive antibody-peptide fusion protein (2, 0.5, 0.05, 0.01, 0.005 and 0.001 […]) in BSAT was added per well. Background control wells (containing no fibrils) contained […] of 20 nM biotinylated rVλ6WIL monomer in BSAT added to them. The microplate was then incubated for 1 hour at 37° C. The plate was then washed twice with wash buffer. 100 mL of a 1:1000 dilution of europium-labeled streptavidin (Perkin Elmer) in BSAT was then added into each well and incubated for 1 hour at 37° C. Next, the plate was washed 3× with wash buffer. To quantify amyloid fibril formation, […] of enhancement solution (Perkin Elmer) was added to each well and time-resolved fluorescence emission was measured in each well.
The methods of Example 1 were carried out in the presence of the amyloid reactive peptide p5R, an amyloid-reactive antibody-peptide fusion protein, an amyloid-reactive humanized antibody, or a control.
Assay conditions included the following: 20 nM biotinylated WIL monomer, 1 hour incubation using BSA as a blocking agent, and 50 μL/well of 10 μg/mL fibrils (0.83 μg).

[2] = target: rVλ6WIL synthetic fibrils; experiment: fibril extension assay: 20 nM biotin-WIL monomer binding to plate-coated rVλ6WIL fibrils in the presence of 2 µM sample, BSA block, europium-streptavidin

% Change (at 2 µM) of rVλ6WIL fibril extension against control [2]	Molecule	% Change (at 2 μM) in rVλ6WIL fibril extension [1]	rVλ6WIL fibril extension in the presence of the peptide ([1]; concentrations between 0.001 μM to 2.0 μM, FIGS. 2A, 2B)	extension of rVλ6WIL fibrils in the presence of the antibody ([1]; beginning at a concentration of 0.01 μM, FIGS. 4A, 4B)	concentration at which significant attenuation of rVλ6WIL fibril extension begins ([1]; tested 0.001 to 2 μM)	concentration of maximum level of rVλ6WIL fibril extension inhibition ([1]; tested 0.001 to 2 μM)
–	Amyloid reactive peptide p5R: amyloid-reactive peptide p5R, SEQ ID NO: 2, RAQRAQARQARQAQRAQRAQARQARQ (RAQRAQARQARQAQRAQRAQARQARQ)	+12%	insufficient to inhibit rVλ6WIL fibril extension	–	–	–
-89%	amyloid-reactive humanized antibody (VH SEQ ID NO:55 / VL SEQ ID NO:36) (antibody, V domains shown) VH: QVQLQESGPGLVKPSETLSLTCTVSGFSLSSYGVSWIRQPPGKGLEWLGVIWGEGSTNYHPNLMSRVTISVDTSKSQVLFKLSSVTAADTAVYYCATLDYWGQGTSVTVSS VL: DVVMTQSPLSLPVTLGQPASISCRSSQSLVHRSGNTYLHWFQQRPGQSPRLLIYKVSNRFSGVPDRFSGSGSGTDFTLKISRVEAEDVGVYFCFQTTYVPNTFGGGTKLEIK	−89%	–	significantly attenuated	10 nM	2000 nM
12%	RAQRAQARQARQAQRAQRAQARQARQ [amyloid-reactive peptide p5R]	–	–	–	–	–
